This is an account of results in article PMC8610991, “The encapsulin from Thermotoga maritima is a flavoprotein with a symmetry matched ferritin-like cargo protein” (Scientific Reports, 2021).

Series [1] addresses T1, T. maritima encapsulin (Thermotoga maritima, UniProt Q9WZP2).
T1 construct: gene enc; encapsulin shell, codon-optimised gene in pET14, E. coli BL21(DE3), co-expressed with His6-tagged FLP cargo (sub-stoichiometric loading); T = 1 icosahedral shell of 12 pentamers; flavin site between two shell subunits; with Encapsulated ferritin-like protein (FLP cargo)
Kind of series: cryo-EM structure […] A; absorbance, LC-MS of released flavin. The class given is binding. The conditions noted are these: co-purified flavin; pi-stacking with W90 between two shell subunits; fluorescence quenched until denatured.

Series [2] deals with T1, T. maritima encapsulin. Nature of the series: LC-MS of flavin released from purified encapsulin. The format is binding. The following applies: co-purified minor species; exact flavin composition not determined.
Series [3] concerns the target Thermotoga maritima encapsulin shell protein (Thermotoga maritima) (UniProt Q9WZP2). Kind of series: cryo-EM structure; FLP-loaded encapsulin, co-expressed in E. coli and purified as a complex; 2 mg/mL, 0.05% NP-40; 2D classes, I1 reconstruction of the shell (3.3 Å), C1 reconstruction, symmetry expansion and focused classification of the FLP at a pentameric vertex (shell ~3.5 Å, FLP ~7 Å).

Series [4] concerns the molecule itself. The description is as above.

Values joined by “and” are separate entries in the source; they are usually repeats but may differ in a detail not shown here. Equal values may be shown once.

T1 sequence (Q9WZP2 whole entry): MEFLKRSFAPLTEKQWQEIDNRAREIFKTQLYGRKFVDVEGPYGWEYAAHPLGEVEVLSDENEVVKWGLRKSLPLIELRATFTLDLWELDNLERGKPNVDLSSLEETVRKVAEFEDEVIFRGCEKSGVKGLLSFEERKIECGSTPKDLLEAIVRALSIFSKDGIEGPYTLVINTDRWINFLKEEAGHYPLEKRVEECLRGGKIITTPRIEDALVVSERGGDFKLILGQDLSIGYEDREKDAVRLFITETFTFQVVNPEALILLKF

As to `Cc1cc2nc3c(=O)[nH]c(=O)nc-3n(C[C@H](O)[C@H](O)[C@H](O)COP(=O)(O)O)c2cc1C` [FMN, flavin mononucleotide], the “cryo-EM structure 3.3 A; absorbance, LC-MS of released flavin” value on T. maritima encapsulin [1] is reported as “additional density near W90 that corresponds to a flavin undergoing π–stacking with the tryptophan”.

`Cc1cc2nc3c(=O)[nH]c(=O)nc-3n(C[C@H](O)[C@H](O)[C@H](O)CO)c2cc1C` [riboflavin]: the “LC-MS of flavin released from purified encapsulin” value at T. maritima encapsulin [2] is “Both FMN and riboflavin were present as the major and minor peaks respectively”.

B1: Thermotoga maritima ferritin-like protein (FLP) cargo (natural protein, UniProt Q9WZP3 1-114, looked up)
chain: MADQYHEPVSELTGKDRDFVRALNSLKEEIEAVAWYHQRVVTTKDETVRKILEHNRDEEMEHAAMLLEWLRRNMPGWDEALRTYLFTDKPITEIEEETSGGSENTGGDLGIRKL
notes: ferritin-like protein, native cargo of the Thermotoga maritima encapsulin; Decamer with fivefold symmetry; The map of the cargo (EMD-24002) has no atomic model of its own; a homologous FLP crystal structure (PDB 5DA5) was docked as a rigid body; also called cargo protein; ferritin-like cargo protein; copies: 10
As to B1, the stoichiometry N is 3 FLPs/shell and 5 FLPs/shell and 4 FLPs/shell in series [3]; 10 in series [4]. The stoichiometry N (FLPs per encapsulin) in series [3] is 2.

As a reminder, the stoichiometry N is the number of molecules, sites or subunits per partner or assembly.
